The results in this text go back to PMC4586175 (Oncogene, 2009).

The assay addresses purified GST-RACK1 (human, UniProt P63244 1-317). In words: pull-down.

B1: purified His-WRN protein (natural protein)
chain: not shown
As for B1, the binding result is reported as “binds”.
